Measured values as given in the supplement of paper PMC11811203.

B1: THAP1; numbered along this chain (parent)
chain: MVQSCSAYGCKNRYDKDKPVSFHKFPLTRPSLCKEWEAAVRRKNFKPTKYSSICSEHFTPDCFKRECNNKLLKENAVPTIFLCTEPHDKKEDLLEPQEQLPPPPLPPPVSQVDAAIGLLMPPLQTPVNLSVFCDHNYTVEDTMHQRKRIHQLEQQVEKLRKKLKTAQQRCRRQERQLEKLKEVVHFQKEKDDVSERGYVILPNDYFEIVEVPA

Variants of: B1
Experiment: THAP1 transcriptional activity (GFP+/GFP- enrichment relative to wild-type constructs) (ratio to WT); higher = more THAP1 activity (PSMB5 reporter activation)
Conditions: with PSMB5 promoter-GFP reporter
Outline: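 In duplicate, a lentivirus-delivered library with every residue from 2–213 of human THAP1 changed to all 20 amino acids was introduced at MOI ~0.3 into THAP1-knockout HEK-293T cells carrying endogenous PSMB5 tagged by mClover3 knock-in. Five days on, BFP+ cells were binned as GFP-dim or GFP-bright, and Illumina sequencing of genomic DNA amplicons counted each variant. Activity is the bright/dim read fold change, averaged over replicates and scaled to the mean of wild-type synonymous constructs.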

THAP1 transcriptional activity: each site, then its substitutions
A115: C 0.428, D 1.12, I 0.237, F 0.278, S 0.742, R 0.409, L 0.295, Y 0.256, V 0.454, G 0.474, M 0.233, Q 0.738, K 0.658, E 1.47, W 0.164, P 0.658, N 0.982, T 0.594, H 0.76
P106: H 0.72, S 2.1, T 1.33, Y 1.49, C 1.25, L 0.994, F 0.72, W 0.703, E 2.61, D 1.76, I 1.07, R 1.58, N 1.89, K 1.89, V 1.39, M 1.23
P104: D 6.01, C 0.986, A 1.09, M 0.907, T 1.39, S 2.12, G 1.2, Y 0.704, Q 1.88, K 1.14, E 1.85, I 0.946, W 0.527, V 2.16, F 0.865, R 0.888
V112: N 1.3, G 1.11, W 0.234, R 0.921, M 1.24, K 1.74, T 1.06, D 0.804, L 0.629, C 1.08, H 0.743, Q 1.03, P 1.04, E 1.25, A 0.615, F 0.388, S 1.12, I 0.587
L118: P 1.1, W 0.319, Q 1.04, E 0.947, D 0.991, V 0.976, I 1.1, G 0.954, K 0.884, C 0.498, A 0.723, Y 0.871, N 2.21, S 0.509, R 1.19, H 1.01, F 1.09
P122: D 0.515, G 0.667, F 0.156, E 0.885, A 0.914, C 0.319
L119: A 0.912, K 1.25, G 0.614, Y 0.443, H 0.929, D 0.609, N 1.09, R 0.731, F 0.425, Q 0.718, P 1.08, E 1.03, S 0.92, W 0.533, I 1.11, V 0.5, C 0.404, M 0.525
D113: P 0.638, V 0.277, L 0.336, S 0.697, A 0.667, K 0.918, G 0.816, Q 0.7, Y 0.229, T 0.375, H 0.473, I 0.206, R 0.285, N 0.681, M 0.24, E 0.669, F 0.135, W 0.173, C 0.573
Q111: Y 0.232, T 1.13, D 1.06, H 0.97, W 0.132, G 0.565, N 0.81, K 1.01, R 0.543, V 0.457, C 0.52, M 0.329, E 0.762, P 0.993, L 0.357, I 0.508, F 0.585, A 0.608
P107: M 1.29, D 1.21, A 1.2, T 1.04, I 0.533, F 0.519, N 0.608, R 0.608, H 0.688, Q 1.2, L 1.74, C 0.851, E 1.58, G 1.11, W 0.215, S 1.14, Y 1.42, K 1.6
V109: K 2.39, M 1.17, C 1.49, Q 1.24, N 2.02, W 0.467, G 1.96, F 0.884, R 0.788, L 2.8, S 1.31, I 0.777, Y 0.304, T 1.18, E 3.82, D 2.07, A 1.33
A114: L 0.635, T 1.27, V 0.296, N 1.35, K 0.546, F 0.602, I 0.238, H 0.483, W 0.317, P 1.29, Y 0.291, C 0.678, G 0.748, E 0.768, M 0.387, S 0.612, D 1.33, Q 0.985
L105: A 1.61, C 1.32, N 1.92, W 0.491, H 1.54, M 1.81, S 2.43, T 1.56, Y 0.831, F 0.955, E 1.27, G 1.09, I 2.11, K 1.34
P103: K 1.31, W 0.806, N 0.938, T 1.19, M 0.728, S 1.1, R 1.56, V 1.04, Y 0.902, L 1.61, Q 1.15
M120: A 0.822, S 0.984, C 0.909, F 0.651, W 0.324, P 1.25, H 0.611, I 1.14, D 1.08, L 0.534, Q 1.57, R 0.835, Y 0.474, G 0.81, V 1.24, N 1.38, E 1.25, K 1.37, T 1.85
P121: N 0.457, S 0.441, C 0.259, V 0.207, A 1.18, G 0.454, F 0.115, E 0.735, Q 0.491, R 0.501, I 0.299, Y 0.185, D 0.48, K 0.594, L 0.104, W 0.0793, M 0.288
S110: E 0.424, P 0.916, R 0.973, G 1.15, Q 0.788, T 0.793, L 0.361, M 0.337, I 0.783, D 0.782, A 0.787, C 0.567, Y 0.394, K 1.31, H 0.672, W 0.41, F 0.715, V 0.459
P108: Q 1.31, E 1.26, A 1.3, M 0.588, H 1.01, S 1.65, C 0.724, K 0.9, N 2.3, L 1.93, V 2.03, W 0.601, I 1.18, T 1.43, F 0.519, Y 0.559, D 1.66, G 1.24
I116: P 0.93, M 0.731, R 0.984, A 1, Q 0.902, L 0.739, S 1.3, N 0.988, F 0.452, T 1.04, E 0.841, K 0.886, Y 0.918, D 1.33, C 0.903, V 1.05, W 0.472, H 0.735, G 1.82
G117: A 0.485, R 0.476, L 0.288, Q 0.581, W 0.261, D 0.481, I 0.169, S 0.877, Y 0.262, M 0.138, E 1.6, P 1.14, C 0.534, F 0.352, N 0.857, T 0.51, H 0.396, K 0.256
